Results: paper PMC11884936, “MDC1 mediates Pellino recruitment to sites of DNA double-strand breaks” (Life Science Alliance, 2025)
Square brackets hold non-standard residues; d marks the D form. pT = C[C@@H](OP(=O)(O)O)[C@H](N)C(=O)O; pS = N[C@@H](COP(=O)(O)O)C(=O)O

How the values were obtained:
Test in all cases: ITC; peptide in the syringe (typically 160 μM), protein in the cell (16 μM); 25 mM HEPES pH 7.0, 200 mM NaCl, 1 mM TCEP; single-site binding model
Details in all cases: both partners purified
[1] = target: T1, Pellino 1 FHA (PELI1 residues 13-273) (human, UniProt Q96FA3 13-273)
T1 construct: Cloned into pGEX-6P1; same preparation for ITC and crystallography by the methods; also called PELI1 (13–273); N-terminal PELI1 fragment; source: E. coli BL21 (DE3), purified (Glutathione Sepharose, 3C cleavage, gel filtration); not shown: GST, N-terminal, cleaved
T1 sequence (looked up): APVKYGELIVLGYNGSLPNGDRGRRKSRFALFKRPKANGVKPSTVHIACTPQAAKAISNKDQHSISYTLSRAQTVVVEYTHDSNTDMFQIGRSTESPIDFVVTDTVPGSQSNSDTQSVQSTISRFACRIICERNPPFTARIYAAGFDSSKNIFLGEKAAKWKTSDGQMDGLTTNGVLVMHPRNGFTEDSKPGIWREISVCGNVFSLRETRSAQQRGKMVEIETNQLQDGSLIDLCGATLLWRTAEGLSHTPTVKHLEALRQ

[2] = target: T2, Pellino 2 FHA (PELI2 residues 15-275) (human, UniProt Q9HAT8 15-275)
T2 construct: Cloned into pGEX-6P1; also called PELI2 (15–273); N-terminal PELI2 fragment; source: E. coli BL21 (DE3), purified (Glutathione Sepharose, 3C cleavage, gel filtration); not shown: GST, N-terminal, cleaved
T2 sequence (looked up): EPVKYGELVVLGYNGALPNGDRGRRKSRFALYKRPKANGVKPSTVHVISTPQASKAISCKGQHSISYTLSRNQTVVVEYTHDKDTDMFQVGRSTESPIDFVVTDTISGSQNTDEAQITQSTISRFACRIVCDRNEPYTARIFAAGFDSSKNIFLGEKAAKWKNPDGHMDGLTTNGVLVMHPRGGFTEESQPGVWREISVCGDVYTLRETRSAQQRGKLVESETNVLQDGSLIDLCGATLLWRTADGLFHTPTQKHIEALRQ

[3] = target: T3, MDC1 BRCT-repeat fragment (human)
T3 construct: MDC1, BRCT-repeat fragment; source: purified

B1: MDC1-pT699 phosphopeptide for ITC (AYDLQApTQCFA) (peptide)
peptide: Ac-AYDLQA[pT]QCFA-NH2
SMILES: CC(=O)N[C@@H](C)C(=O)N[C@@H](Cc1ccc(O)cc1)C(=O)N[C@@H](CC(=O)O)C(=O)N[C@@H](CC(C)C)C(=O)N[C@@H](CCC(N)=O)C(=O)N[C@@H](C)C(=O)N[C@H](C(=O)N[C@@H](CCC(N)=O)C(=O)N[C@@H](CS)C(=O)N[C@@H](Cc1ccccc1)C(=O)N[C@@H](C)C(N)=O)[C@@H](C)OP(=O)(O)O
notes: human MDC1, stretch around T699 with alanine at pT+4; source: synthetic peptide
Kd [1]: 2.01 µM | dH [1]: -18.5 kcal/mol | stoichiometry N [1]: 0.36 | Kd [2]: 1.12 µM | dH [2]: -19.9 kcal/mol | stoichiometry N [2]: 0.55

B2: MDC1-pT719 phosphopeptide for ITC (AYEDEPpTQAFA) (peptide)
chain: Ac-AYEDEP[pT]QAFA-NH2
SMILES: CC(=O)N[C@@H](C)C(=O)N[C@@H](Cc1ccc(O)cc1)C(=O)N[C@@H](CCC(=O)O)C(=O)N[C@@H](CC(=O)O)C(=O)N[C@@H](CCC(=O)O)C(=O)N1CCC[C@H]1C(=O)N[C@H](C(=O)N[C@@H](CCC(N)=O)C(=O)N[C@@H](C)C(=O)N[C@@H](Cc1ccccc1)C(=O)N[C@@H](C)C(N)=O)[C@@H](C)OP(=O)(O)O
Kd [1]: 1.14 µM | dH [1]: -21.8 kcal/mol | stoichiometry N [1]: 0.78 | Kd [2]: 1.22 µM | dH [2]: -34.7 kcal/mol | stoichiometry N [2]: 0.52

B3: MDC1-pT752 phosphopeptide for ITC (AYEVLApTQPFC) (peptide)
peptide: Ac-AYEVLA[pT]QPFC-NH2
SMILES: CC(=O)N[C@@H](C)C(=O)N[C@@H](Cc1ccc(O)cc1)C(=O)N[C@@H](CCC(=O)O)C(=O)N[C@H](C(=O)N[C@@H](CC(C)C)C(=O)N[C@@H](C)C(=O)N[C@H](C(=O)N[C@@H](CCC(N)=O)C(=O)N1CCC[C@H]1C(=O)N[C@@H](Cc1ccccc1)C(=O)N[C@@H](CS)C(N)=O)[C@@H](C)OP(=O)(O)O)C(C)C
notes: two N-terminal residues that are not the MDC1 residues at this place; human MDC1, stretch around T752; Natural stretch with two added N-terminal residues (AY); source: synthetic peptide
Kd [1]: 1.14 µM | dH [1]: -18.5 kcal/mol | stoichiometry N [1]: 0.74 | Kd [2]: 1.06 µM | dH [2]: -28.2 kcal/mol | stoichiometry N [2]: 0.69

B4: MDC1-pT765 phosphopeptide for ITC and crystallisation (AYEDSEpTQPFD) (peptide)
peptide: Ac-AYEDSE[pT]QPFD-NH2
SMILES: CC(=O)N[C@@H](C)C(=O)N[C@@H](Cc1ccc(O)cc1)C(=O)N[C@@H](CCC(=O)O)C(=O)N[C@@H](CC(=O)O)C(=O)N[C@@H](CO)C(=O)N[C@@H](CCC(=O)O)C(=O)N[C@H](C(=O)N[C@@H](CCC(N)=O)C(=O)N1CCC[C@H]1C(=O)N[C@@H](Cc1ccccc1)C(=O)N[C@@H](CC(=O)O)C(N)=O)[C@@H](C)OP(=O)(O)O
notes: two N-terminal residues that are not the MDC1 residues at this place; human MDC1, stretch around T765; Natural stretch with two added N-terminal residues (AY); The crystallisation methods name only 'the MDC1-pT765 phosphopeptide'; also called MDC1-pT765 (Site 4) phosphopeptide; MDC1 p765 peptide; source: synthetic peptide
Kd [1]: 0.23 µM | dH [1]: -22 kcal/mol | stoichiometry N [1]: 0.62 | Kd [2]: 0.37 µM | dH [2]: -32.7 kcal/mol | stoichiometry N [2]: 0.69

B5: IRAK1-pT141(+3Y) phosphopeptide (AYSSASpTFLYP) (peptide)
peptide: Ac-AYSSAS[pT]FLYP-NH2
SMILES: CC(=O)N[C@@H](C)C(=O)N[C@@H](Cc1ccc(O)cc1)C(=O)N[C@@H](CO)C(=O)N[C@@H](CO)C(=O)N[C@@H](C)C(=O)N[C@@H](CO)C(=O)N[C@H](C(=O)N[C@@H](Cc1ccccc1)C(=O)N[C@@H](CC(C)C)C(=O)N[C@@H](Cc1ccc(O)cc1)C(=O)N1CCC[C@H]1C(N)=O)[C@@H](C)OP(=O)(O)O
notes: two N-terminal residues as in the other ITC peptides; IRAK1, stretch around T141 with tyrosine at pT+3; also called IRAK-pT141(+3Y); source: synthetic peptide
Kd [1]: 0.42 µM | dH [1]: -17.4 kcal/mol | stoichiometry N [1]: 0.7 | Kd [2]: 0.7 µM | dH [2]: -25.8 kcal/mol | stoichiometry N [2]: 0.59

B6: H2AX-pS139 phosphopeptide for ITC (GGKATQApSQEY) (peptide)
chain: Ac-GGKATQA[pS]QEY-NH2
SMILES: CC(=O)NCC(=O)NCC(=O)N[C@@H](CCCCN)C(=O)N[C@@H](C)C(=O)N[C@H](C(=O)N[C@@H](CCC(N)=O)C(=O)N[C@@H](C)C(=O)N[C@@H](COP(=O)(O)O)C(=O)N[C@@H](CCC(N)=O)C(=O)N[C@@H](CCC(=O)O)C(=O)N[C@@H](Cc1ccc(O)cc1)C(N)=O)[C@@H](C)O
Kd [3]: 0.85 µM | dH [3]: -13.9 kcal/mol | stoichiometry N [3]: 0.6
